Bridge positions count the residues as written; N and C are the ends. Square brackets hold non-standard residues; d marks the D form. Ends that are not written are not given here. Lys(N3) = [N-]=[N+]=NCCCC[C@H](N)C(=O)O; hArg = N=C(N)NCCCC[C@H](N)C(=O)O; Tle = CC(C)(C)[C@H](N)C(=O)O; Hpra = C#CCC[C@H](N)C(=O)O; Nle = CCCC[C@H](N)C(=O)O
B1: AIF (370-394) (peptide)
peptide: Ac-QSVGVSSGKLLIKLKDGRKVETDHI-NH2
notes: also called AIF mimetic peptide (amino acids 370-394)
B2: Cyclic peptide derived from Formula (I), X5-X6: Tle-Tle (peptide)
peptide: CIKLK[Tle][Tle]RKVC
modifications: disulfide 1-11
notes: X stands for the non-natural residue
B3: Cyclic peptide derived from Formula (I), X5-X6: Nle -L (peptide)
peptide: CIKLK[Nle]LRKVC
modifications: disulfide 1-11
notes: as for B2
B4: Cyclic peptide derived from Formula (I), X5-X6: L- Nle (peptide)
peptide: CIKLKL[Nle]RKVC
modifications: disulfide 1-11
notes: as for B2
B5: Cyclic peptide derived from Formula (I), X5-X6: L-L (peptide)
peptide: CIKLKLLRKVC
modifications: disulfide 1-11
B6: Cyclic peptide derived from Formula (I), X5-X6: L- Tle (peptide)
peptide: CIKLKL[Tle]RKVC
modifications: disulfide 1-11
notes: as for B2
B7: Cyclic peptide derived from Formula (I), X5-X6: I-L (peptide)
peptide: CIKLKILRKVC
modifications: disulfide 1-11
B8: Cyclic peptide derived from Formula (I), X5-X6: V-L (peptide)
peptide: CIKLKVLRKVC
modifications: disulfide 1-11
B9: Cyclic peptide derived from Formula (I), X5-X6: I-I (peptide)
peptide: CIKLKIIRKVC
modifications: disulfide 1-11
B10: Cyclic peptide derived from Formula (I), X5-X6: V-V (peptide)
peptide: CIKLKVVRKVC
modifications: disulfide 1-11
B11: Cyclic peptide derived from Formula (I), X5-X6: L-I (peptide)
peptide: CIKLKLIRKVC
modifications: disulfide 1-11
B12: Cyclic peptide derived from Formula (I), X5-X6: L-V (peptide)
peptide: CIKLKLVRKVC
modifications: disulfide 1-11
B13: Cyclic peptide derived from Formula (I), X2: hR (peptide)
peptide: CI[hArg]LKDGRKVC
modifications: disulfide 1-11; also: Y1 can be H (free N-terminus), Y2 can be amino (C-terminal amide)
notes: Only the changed residues are printed; X stands for the non-natural residue
B14: Cyclic peptide derived from Formula (I), X5-X6: Nle-Nle (peptide)
peptide: CIKLK[Nle][Nle]RKVC
modifications: disulfide 1-11
notes: as for B2
B15: Cyclic peptide derived from Formula (I), X5-X6: Tle-L (peptide)
peptide: CIKLK[Tle]LRKVC
modifications: disulfide 1-11
notes: as for B2
B16: CypA (55-69) (peptide)
peptide: Ac-RIIPGFMCQGGDFTR-NH2
B17: AIF (370-394)-stapled peptides (peptide)
peptide: Ac-QSCGVSSG[Lys(N3)]LLCKLKDGRKV[Hpra]TDHI-NH2
modifications: disulfide 3-12; triazole 9-21
notes: also called stapled AIF (370-394) analog
B18: AIF (381-389) LLox (peptide)
peptide: Ac-CIKLKLLRKVC-NH2
modifications: disulfide 1-11
SMILES: CC[C@H](C)[C@@H]1NC(=O)[C@@H](NC(C)=O)CSSC[C@@H](C(N)=O)NC(=O)[C@H](C(C)C)NC(=O)[C@H](CCCCN)NC(=O)[C@H](CCCNC(=N)N)NC(=O)[C@H](CC(C)C)NC(=O)[C@H](CC(C)C)NC(=O)[C@H](CCCCN)NC(=O)[C@H](CC(C)C)NC(=O)[C@H](CCCCN)NC1=O
B19: AIF (381-389) ox (peptide)
peptide: Ac-CIKLKDGRKVC-NH2
modifications: disulfide 1-11
SMILES: CC[C@H](C)[C@@H]1NC(=O)[C@@H](NC(C)=O)CSSC[C@@H](C(N)=O)NC(=O)[C@H](C(C)C)NC(=O)[C@H](CCCCN)NC(=O)[C@H](CCCNC(=N)N)NC(=O)CNC(=O)[C@H](CC(=O)O)NC(=O)[C@H](CCCCN)NC(=O)[C@H](CC(C)C)NC(=O)[C@H](CCCCN)NC1=O

target: T1, Peptidylprolyl isomerase A (PPIA), also known as cyclophilin A (CypA) (UniProt P62937 1-165); test: binding to CypA; method not stated
T1 construct: Protein used for the in vitro KD/IC50 values
T1 sequence (P62937 whole entry): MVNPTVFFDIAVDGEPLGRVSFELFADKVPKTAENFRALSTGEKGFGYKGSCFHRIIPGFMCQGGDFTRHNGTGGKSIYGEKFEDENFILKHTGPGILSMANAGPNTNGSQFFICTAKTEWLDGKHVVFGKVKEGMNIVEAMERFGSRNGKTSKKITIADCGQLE

| Kd | Binder |
| --- | --- |
| ~5 µM | B1 |

target: T1, Peptidylprolyl isomerase A (PPIA), also …; test: KD 'determined', method not stated; target not given, taken as CypA

| Kd | Binder |
| --- | --- |
| 13.6 µM | B2 |
| 30.7 µM | B3 |
| 23.9 µM | B4 |
| 1.2 µM | B5 |
| 151 µM | B6 |
| 89.9 µM | B7 |
| 37.6 µM | B8 |
| 58.9 µM | B9 |
| 268 µM | B10 |
| 233 µM | B11 |
| 7.57 µM | B12 |
| 80.3 µM | B13 |
| 22.9 µM | B14 |
| 147 µM | B15 |

target: Apoptosis-inducing factor (AIF) protein (UniProt O95831 122-613, limits assumed); test: printed as 'Disrupts the complex AIF/Cyclophilin with a KD'; method not stated; target taken as AIF
Sequence (O95831 122-613 limits assumed): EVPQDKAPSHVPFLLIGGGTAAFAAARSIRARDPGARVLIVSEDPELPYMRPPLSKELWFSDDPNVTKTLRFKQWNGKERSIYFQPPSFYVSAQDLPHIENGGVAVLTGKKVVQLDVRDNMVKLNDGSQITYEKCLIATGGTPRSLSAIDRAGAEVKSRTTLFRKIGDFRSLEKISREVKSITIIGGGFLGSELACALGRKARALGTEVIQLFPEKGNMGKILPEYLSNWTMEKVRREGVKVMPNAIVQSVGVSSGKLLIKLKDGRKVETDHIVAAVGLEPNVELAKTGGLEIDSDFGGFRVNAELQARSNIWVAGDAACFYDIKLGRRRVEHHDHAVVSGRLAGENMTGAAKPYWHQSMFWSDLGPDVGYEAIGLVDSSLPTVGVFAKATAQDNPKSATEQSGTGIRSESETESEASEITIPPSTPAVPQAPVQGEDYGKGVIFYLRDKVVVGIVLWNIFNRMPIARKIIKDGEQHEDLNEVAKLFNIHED

| Kd | Binder |
| --- | --- |
| ~6 µM | B16 |

target: T1, Peptidylprolyl isomerase A (PPIA), also …; test: printed as 'Disrupts the complex AIF/Cyclophilin with a KD'; method not stated

| Kd | Binder |
| --- | --- |
| ~0.8 µM | B17 |

target: T1, Peptidylprolyl isomerase A (PPIA), also …; test: disruption of the AIF/Cyclophilin complex in living cells and in vitro; method not stated

| IC50 | Binder |
| --- | --- |
| 5 µM | B1 |

target: T1, Peptidylprolyl isomerase A (PPIA), also …; test: printed as 'disrupts the complex AIF/Cyclophilin with a KD'; method not stated

| Kd | Binder |
| --- | --- |
| ~1 µM | B18 |
| ~2 µM | B19 |

Source: US20240109937A1 (Johns Hopkins, published 2024)
